The source of these data is patent publication US7261893 (Pfizer, dated 2007).

To fix the notation:
B1: mature human BMP-11 (ligand, UniProt O95390 299-407, looked up)
chain: NLGLDCDEHSSESRCCRYPLTVDFEAFGWDWIIAPKRYKANYCSGQCEYMFMQKYPHTHLVQQANPRGSAGPCCTPTKMSPINMLYFNDKQQIIYGKIPGMVVDRCGCS
notes: mature; also called GDF-11; biotinylated BMP-11
B2: Myo29 scFv (scFv)
scFv: QVQLVQSGAEVKKPGASVKVSCKASGYTFTSYYMHWVRQAPGQGLEWMGIINPSGGSTSYAQKFQGRVTMTRDTSTSTVYMELSSLRSEDTAVYYCARDENWGFDPWGQGTLVTVSSGGGGSGGGGSGGGGSALSYELTQPPSVSVSPGQTATITCSGHALGDKFVSWYQQGSGQSPVLVIYDDTQRPSGIPGRFSGSNSGNTATLTISGTQAMDEADYFCQAWDSSFVFGGGTKVTVLGAAAHHHHHH
notes: tags from the vector are not described; also called scFv of Myo29
B3: Myo28 scFv (scFv)
scFv: QVTLKESGGGLVQPGGSLRLSCAASGFTFSRYVINWVRQAPGKGLEWVSAISVTGGSTAYADSVRGRFTISRDNSKNTLYLQMNSLRAEDTAVYYCTKGQWERGSYYFDYWGRGTLVTVSSGGGGSGGGGSGGGGSAQSVLTQPPSVSGAPGQRVTISCTGSSSNIGDGYDVHWYQQLPGTAPKLLIYGNSHRPSGVPDRFSGSKSDTSASLAITGLQVEDEADYFCHSYDGSVSGWIFGGGTKLTVLGAAAHHHHHH
notes: tags from the vector are not described; also called scFv of Myo28
B4: Myo29 human IgG1 antibody (antibody, V domains shown)
VH: QVQLVQSGAEVKKPGASVKVSCKASGYTFTSYYMHWVRQAPGQGLEWMGIINPSGGSTSYAQKFQGRVTMTRDTSTSTVYMELSSLRSEDTAVYYCARDENWGFDPWGQGTLVTVSS
VL: SYELTQPPSVSVSPGQTATITCSGHALGDKFVSWYQQGSGQSPVLVIYDDTQRPSGIPGRFSGSNSGNTATLTISGTQAMDEADYFCQAWDSSFVFGGGTKVTVLG
B5: Myo28 human IgG1 antibody (antibody, V domains shown)
VH: QVTLKESGGGLVQPGGSLRLSCAASGFTFSRYVINWVRQAPGKGLEWVSAISVTGGSTAYADSVRGRFTISRDNSKNTLYLQMNSLRAEDTAVYYCTKGQWERGSYYFDYWGRGTLVTVSS
VL: QSVLTQPPSVSGAPGQRVTISCTGSSSNIGDGYDVHWYQQLPGTAPKLLIYGNSHRPSGVPDRFSGSKSDTSASLAITGLQVEDEADYFCHSYDGSVSGWIFGGGTKLTVLG
B6: Myo22 scFv (scFv)
scFv: EVQLLESGGGLVQPGGSLRLSCAASGFTFSSYAMSWVRQAPGKGLEWVSAISGSGGSTYYADSVKGRFTISRDNSKNTLYLQMNSLRAEDTAVYYCERMGPCTGGSCYDTLGNWGRGTLVTVSSGGGGSGGGGSGGGGSAQSVLTQPPSVSGAPGQRVTISCTGSSSNIGAGYDVHWYQQLPGAAPKLLIRGNGNRPSGVPDRFSVSKSGYSASLAITGLQPADEGVYYCQSYDSSLSGSKVFGQGTKLTVLGAAAHHHHHH
notes: tags from the vector are not described; also called scFv of Myo22

Several values for one entry are separate records, joined by “and”; a condition that tells them apart may be missing. Equal entries are not always repeated.

Experiment [1] has as its target T1, Recombinant ActRIIB-Fc chimera (R&D Systems, Cat. No. 339-RB/CF) (UniProt Q13705 19-134).
T1 construct: Bought reagent, coated on the plate; also called ActRIIB receptor; Fc part of the bought chimera not given
Kind of experiment: ELISA, biotinylated ligand titrated on plate-coated ActRIIB-Fc, streptavidin-HRP. For orientation: An ELISA detects its analyte on a solid surface through an enzyme-linked reagent.

In experiment [2] the target is T2, mature human GDF-8 (growth and differentiation factor-8) (human, UniProt O14793 267-375).
T2 construct: also called myostatin; mature GDF-8
Kind of experiment: inhibition of bioGDF-8 binding to plate-coated ActRIIB-Fc, purified scFv titrated, DELFIA TRF.

Experiment [3] deals with T2, mature human GDF-8 (growth and …). As to the kind of experiment: inhibition of biotinylated GDF-8 (10 ng/ml) binding to plate-coated ActRIIB-Fc, ELISA, Myo29 preincubated with the ligand.
For experiment [4], the target named is B1. Kind of experiment: inhibition of biotinylated BMP-11 (10 ng/ml) binding to plate-coated ActRIIB-Fc, ELISA, Myo29 preincubated with the ligand.
The target of experiment [5] is T2, mature human GDF-8 (growth and …). Kind of experiment: cell-based or functional assay.

T1 sequence (Q13705 19-134, change not shown): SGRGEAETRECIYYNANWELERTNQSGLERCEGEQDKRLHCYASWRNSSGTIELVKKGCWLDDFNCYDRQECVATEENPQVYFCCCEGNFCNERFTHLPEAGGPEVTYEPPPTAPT

As for B1, the EC50 (as a rule, the concentration that produces a half-maximal response) in experiment [1] worked out at 0.04 µg/mL. Take B2: the IC50 (usually the midpoint of a concentration-inhibition curve) in experiment [2] was 2.4 nM.

In experiment [2], B3 had an IC50 of 1.7 nM. B4: the IC50 in experiment [3] and in experiment [4] was 0.2 to 0.4 nM each time. For the same molecule, the “pGL3(CAGA)12 reporter gene assay (RGA) in A204 cells, GDF-8 at 20 ng/ml, IC50” value in experiment [5] was 15 ng/ml to 30 ng/ml (2×) and 0.1 nM to 0.2 nM (2×). As for B5, in experiment [5], the “RGA and ActRIIB binding assays (not said which), IC50” value fell in the range of 0.2 to 0.35 nM. On to B6, for which the IC50 in experiment [2] came to 60 nM.
